Data published in article doi:10.1101/2024.05.10.593530.

Biological target: Vibrio cholerae DdmD (Vibrio cholerae)
Test: SEC-MALS

Substance Vibrio cholerae DdmD (enzyme) has a stoichiometry N of 2.
